Experiments:
[1] = tested on: Burkholderia cepacia ATCC 25416; assay: MIC broth microdilution; format: cell-based; conditions: Burkholderia cepacia ATCC 25416, Gram −; MHB, 35° C., 24 hours
[2] = tested on: Bacillus cereus ATCC 4342; assay: MIC broth microdilution; format: cell-based
Method: (§1) Briefly, the MIC was determined by microbroth dilution assay in a 96 well plate. 4-5 colonies of each bacterium tested were added to 5 ml of MHB, placed in a 35° C. shaker until the OD 600 nm reached 0.08-0.10. The inoculum was diluted 1:100 and 50 microliters were added to each well which contained 50 microliters of serial two fold dilutions of Lento, vancomycin or ciprofloxacin. Each concentration of antibiotic or Lento was tested in duplicate. The plate was placed at 35° C. overnight. MICs were determined after 24 hours incubation and defined by the well containing the lowest amount of antibiotic with no visible growth.

[3] = tested on: Corynebacterium jeikeium ATCC 43216; assay: MIC broth microdilution; format: cell-based; conditions: Corynebacterium jeikeium ATCC 43216, Gram +; MHB, 35° C., 24 hours
Method: as §1

[4] = tested on: Corynebacterium jeikeium ATCC 43734; assay: MIC broth microdilution; format: cell-based; conditions: Corynebacterium jeikeium ATCC 43734, Gram +; MHB, 35° C., 24 hours
Method: as §1

[5] = tested on: Enterococcus faecalis (VRE) ATCC 51299; assay: MIC broth microdilution; format: cell-based
Method: as §1

[6] = tested on: Enterococcus faecium ATCC 51559; assay: MIC broth microdilution; format: cell-based
Method: as §1

[7] = tested on: Micrococcus luteus ATCC 9341; assay: MIC broth microdilution; format: cell-based
Method: as §1

[8] = tested on: Shigella dysenteriae ATCC 11835; assay: MIC broth microdilution; format: cell-based; conditions: Shigella dysenteriae ATCC 11835, Gram −; MHB, 35° C., 24 hours
Method: as §1

[9] = tested on: Staphylococcus aureus ATCC 29213; assay: MIC broth microdilution; format: cell-based; conditions: Staphylococcus aureus ATCC 29213, Gram +; MHB, 35° C., 24 hours
Method: as §1

[10] = tested on: Staphylococcus aureus ATCC 29737; assay: MIC broth microdilution; format: cell-based
Method: as §1

[11] = tested on: Staphylococcus epidermidis ATCC 12228; assay: MIC broth microdilution; format: cell-based; conditions: Staphylococcus epidermidis ATCC 12228, Gram +; MHB, 35° C., 24 hours
Method: as §1

[12] = tested on: Streptococcus pneumoniae (PSRSP) ATCC 700671; assay: MIC broth microdilution; format: cell-based; conditions: Streptococcus pneumoniae (PSRSP) ATCC 700671, Gram +; MHB, 35° C., 24 hours
Method: as §1

[13] = tested on: Streptococcus pneumoniae (TCRSP) ATCC 700902; assay: MIC broth microdilution; format: cell-based; conditions: Streptococcus pneumoniae (TCRSP) ATCC 700902, Gram +; MHB, 35° C., 24 hours
Method: as §1

[14] = tested on: Streptococcus pneumoniae ATCC 49619; assay: MIC broth microdilution; format: cell-based; conditions: Streptococcus pneumoniae ATCC 49619, Gram +; MHB, 35° C., 24 hours
Method: as §1

[15] = tested on: Streptococcus pneumoniae ATCC 700676; assay: MIC broth microdilution; format: cell-based; conditions: Streptococcus pneumoniae ATCC 700676, Gram +; MHB, 35° C., 24 hours
Method: as §1

[16] = tested on: Bacillus cereus ATCC 4342; assay: MBC determination; format: cell-based; conditions: concentration that kills 99.9%
Method: Minimal inhibitory concentrations (MIC) and minimal bactericidal concentrations (MBC) were determined by broth microdilution in MHB as described by the NCCLS (National Committee for Clinical Laboratory Standards, in: Methods for Determining Bactericidal Activity of Antimicrobial Agents; Approved Guideline. National Committee for Clinical Laboratory Standards (M26-A), Vol. 19, 1999).
Briefly, the MIC was determined by microbroth dilution assay in a 96 well plate. 4-5 colonies of each bacterium tested were added to 5 ml of MHB, placed in a 35° C. shaker until the OD 600 nm reached 0.08-0.10. […] MICs were determined after 24 hours incubation and defined by the well containing the lowest amount of antibiotic with no visible growth.
To determine the MBC, 10 microliters from each well with no growth was plated in duplicate and allowed to grow overnight on Mueller-Hinton agar (Difco Catalog number 225250, Becton Dickinson and Company, Sparks, Md., US; 2.0 g beef extract powder, 17.5 g acid digest of casein, 1.5 g starch, 17 g agar—per 1000 ml of water). The MBC is based on the inoculum concentration, which was determined by plating in duplicate 50 microliters of 10^−2, 10^−3, and 10^−4 of the inoculum used for MICs. MBCs were determined as described by the NCCLS guidelines (cited above). […]

[17] = tested on: Enterococcus faecalis (VRE) ATCC 51299; assay: MBC determination; format: cell-based; conditions: concentration that kills 99.9%
Method: as §1
(§2) MBCs were determined as described by the NCCLS guidelines (cited above).

[18] = tested on: Enterococcus faecium ATCC 51559; assay: MBC determination; format: cell-based; conditions: concentration that kills 99.9%
Method: as §1, §2

[19] = tested on: Micrococcus luteus ATCC 9341; assay: MBC determination; format: cell-based; conditions: concentration that kills 99.9%
Method: as §1, §2

[20] = tested on: Staphylococcus aureus ATCC 29737; assay: MBC determination; format: cell-based; conditions: concentration that kills 99.9%
Method: as §1, §2

[21] = tested on: gram-positive bacterial strains; assay: MIC assay, summary over gram-positive strains; format: cell-based; conditions: a number of gram-positive strains, with the exception of certain strains of Staphylococcus
Method: as §1

[22] = tested on: gram-negative bacterial strains; assay: MIC assay, summary over gram-negative strains; format: cell-based; conditions: gram-negative bacterial strains of Table 1
Method: as §1

[23] = tested on: all bacteria tested (Table 2); assay: MBC versus MIC, bactericidal classification; format: cell-based; conditions: all bacteria tested with the exception of E. faecium ATCC 51559
Method: To determine the MBC, 10 microliters from each well with no growth was plated in duplicate and allowed to grow overnight on Mueller-Hinton agar (Difco Catalog number 225250, Becton Dickinson and Company, Sparks, Md., US; 2.0 g beef extract powder, 17.5 g acid digest of casein, 1.5 g starch, 17 g agar—per 1000 ml of water). The MBC is based on the inoculum concentration, which was determined by plating in duplicate 50 microliters of 10^−2, 10^−3, and 10^−4 of the inoculum used for MICs. MBCs were determined as described by the NCCLS guidelines (cited above). The MBC is the concentration of the tested compound that kills 99.9% of the microorganism inoculated into the well.
Based on this definition, Lento is bactericidal against all bacteria tested with the exception of E. faecium ATCC 51559.

[24] = Thermostability by Differential Scanning calorimetry (DSC); format: physicochemical
Method: Differential Scanning calorimetry (DSC) was used to determine temperature stability of the Lento protein at pH 2.5, 4.0 and 7.0. Purified Lento in a concentration of about 2 mg/ml was dialysed over night at 4° C. against appropriate buffer and run on a VP-DSC instrument (MicroCal) with a constant scan rate of 1.5° C./min from 20 to 90° C. Data-handling was performed using the MicroCal Origin software (version 4.10), and denaturation temperature was defined as temperature at the apex of the enthalpy peak. […] In 10 mM sodium acetate, 50 mM NaCl, pH 4.0, Lento denatured at 69° C., and in 10 mM sodium phosphate, 50 mM NaCl, pH 7.0 the denaturation temperature was 60° C.

B1: Lento: Bacillus licheniformis polypeptide having amino acids 1-85 of SEQ ID NO: 2, purified from ATCC 14580 fermentation broth (protein)
chain: MKNHLYEKKKRKPLTRTIKATLAVLTMSIALVGGATVPSFAWVNPGYHYQYPSEGGTWRYGFVNAGLRSEYNHPTKVHGSTVQKL
modifications: Bacillus licheniformis ATCC 14580
For B1, the MIC [1] was over 256 microgram/ml, the MIC ([2]; Bacillus cereus ATCC 4342, Gram +, MHB, 35° C., 24 hours) was 0.5-1 microgram/ml and the MIC ([2]; Table 2 (MBC results), Bacillus cereus ATCC 4342) was 1 microgram/ml. The MIC [3] was 0.125 microgram/ml, the MIC [4] was 2 microgram/ml and the MIC ([5]; Enterococcus faecalis (VRE) ATCC 51299, Gram +, MHB, 35° C., 24 hours) was 8 microgram/ml. It also gave an MIC ([5]; Table 2 (MBC results), Enterococcus faecalis (VRE) ATCC 51299) of 64 microgram/ml, an MIC ([6]; Enterococcus faecium ATCC 51559, Gram +, MHB, 35° C., 24 hours) of 4 microgram/ml and an MIC ([6]; Table 2 (MBC results), Enterococcus faecium ATCC 51559) of 4 microgram/ml. The MBC ([7]; Micrococcus luteus ATCC 9341, Gram +, MHB, 35° C., 24 hours) was 8 microgram/ml, the MBC ([7]; Table 2 (MBC results), Micrococcus luteus ATCC 9341) was 8 microgram/ml and the MIC [8] was over 256 microgram/ml. For the same molecule, the MIC [9] was 64 microgram/ml, the MBC ([10]; Staphylococcus aureus ATCC 29737, Gram +, MHB, 35° C., 24 hours) was 8-32 microgram/ml and the MBC ([10]; Table 2 (MBC results), Staphylococcus aureus ATCC 29737) was 32 microgram/ml. The MIC [11] was 128 microgram/ml, the MIC [12] was 2 microgram/ml and the MIC [13] was 4-8 microgram/ml. For the same molecule, the MIC [14] was 1-2 microgram/ml, the MIC [15] was 4 microgram/ml and the MBC [16] was 1 microgram/ml. It also gave an MBC [17] of 64 microgram/ml, an MBC [18] of over 64 microgram/ml and an MBC [19] of 8 microgram/ml. The MBC [20] was 32 microgram/ml, the “antimicrobial effect on gram-positive bacterial strains” value [21] was “pronounced antimicrobial effect” and the “antimicrobial effect on gram-negative bacterial strains” value [22] was “uncertain if any antimicrobial effect”. The “bactericidal (MBC within four fold of the MIC)” value [23] was “bactericidal”, the “denaturation temperature (DSC)” value ([24]; 10 mM citric acid, 50 mM sodium chloride, pH 2.5) was 55 °C and the “denaturation temperature (DSC)” value ([24]; 10 mM sodium acetate, 50 mM NaCl, pH 4.0) was 69 °C. The “denaturation temperature (DSC)” value ([24]; 10 mM sodium phosphate, 50 mM NaCl, pH 7.0) was 60 °C.
